Source: patent publication US20050260575, “Method for identifying substances useful for treating inflammation using the response element to the ikbalpha ror receptor” (published 2005)

T1: RORα1 (Homo sapiens, UniProt P35398 P35398:1-523)
T1 sequence: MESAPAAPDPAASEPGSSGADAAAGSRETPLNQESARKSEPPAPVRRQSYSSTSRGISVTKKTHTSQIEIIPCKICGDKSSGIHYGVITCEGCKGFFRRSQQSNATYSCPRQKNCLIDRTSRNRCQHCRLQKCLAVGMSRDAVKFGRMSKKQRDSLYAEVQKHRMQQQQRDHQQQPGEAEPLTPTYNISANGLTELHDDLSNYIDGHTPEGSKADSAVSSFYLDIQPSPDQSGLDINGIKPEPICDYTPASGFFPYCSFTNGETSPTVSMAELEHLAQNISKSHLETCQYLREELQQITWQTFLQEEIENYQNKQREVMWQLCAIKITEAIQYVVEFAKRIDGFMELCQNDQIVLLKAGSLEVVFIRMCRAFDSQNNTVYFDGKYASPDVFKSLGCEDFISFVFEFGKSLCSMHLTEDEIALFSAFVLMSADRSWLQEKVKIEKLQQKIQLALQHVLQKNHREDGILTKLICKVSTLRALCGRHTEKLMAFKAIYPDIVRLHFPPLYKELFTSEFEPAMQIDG

B1: IκBα-RORE (dsDNA)
DNA 1: GAGCACAATGTAGGTCAGATAG
DNA 2: CTATCTGACCTACATTGTGCTC
B2: IκBα-RORE mutant (dsDNA)
DNA 1: GAGCACAATGTACCTCAGATAG
DNA 2: CTATCTGAGGTACATTGTGCTC

Experiments:
RORα1 [1] = biological target: T1, RORα1; assay: EMSA; supershift with RORα1 antibody; native competitor 1x-100x; exact probe length not stated; details: tags: TNT-T7 Promega; hRORα1; label: labelled probe
Method: (§1) FIG. 6C depicts the gel shift experiments conducted by using the in vitro translated RORαl protein (TNT-T7 Promega) and an IκBα-RORE labelled probe. […] To […] the mobility of the complex, 1 μl of RORα1 antibody was added to the binding reaction (S: shift of the complex; SS: super-shift of the complex; FP: unbound probe).
(§2) It has been shown that the negative dominant RORαΔ235 missing the LBD domain inhibits RORα1-induced transcription by competing with the same DNA binding domain (Mc Broom, L. D. B., Flock, G. and Giguère, V., Mol. Cell. Biol. 1995, 15: 796-808). The effect of this mutant on the promoter under the control of the IκBα gene RORE inducible by RORα1 was tested. Cotransfection with RORαΔ235 abolished the effect of RORα1 (FIG. 6B). […] Finally, binding of RORα1 to its response element RORE was checked by gel shift assays, using in vitro translated RORα1 protein.

RORα1 [2] = biological target: T1, RORα1; assay: competition; unlabelled mutated competitor 1x-100x used as specificity control; full oligo sequence not stated, SEQ 15 matches the ACCTCA mutation; details: tags: TNT-T7 Promega; hRORα1
Method: as §1, §2

| Binder | binding result (RORα1 [1]) | binding result (RORα1 [2]) |
| --- | --- | --- |
| B1 | binds | – |
| B2 | – | no binding |
